Data reported in patent US10858422B2, “Methods for treating systemic lupus erythematosus with an anti-apolipoprotein B antibody” (Abcentra, LLC, priority 2016, dated 2020).
Marks after values point to notes of the source that are not given here.

What was measured:
[1] = test system: patients with atherosclerosis and evidence of carotid or aortic plaque inflammation; test: Phase IIa: inflammatory and metabolic biomarkers; format: in vivo, human
Protocol: (§1) Incidence and severity of adverse events and clinical laboratory abnormalities as a measure of safety and tolerability of orticumab. Effects of orticumab on inflammatory and metabolic biomarkers. Serum and EDTA plasma samples for soluble biomarker analysis were obtained at baseline and on Day 29 and Day 85. Biomarker assays were performed using the HumanMAP1.6 multiplex panel from Rules Based Medicine (RBM). IL-6 and TNFα immunoassays were performed at Pacific Biomarkers using Quantikine R&D High Sensitivity ELISA. IL-10, MPO and oxLDL immunoassays were performed at Pacific Biomarkers using immunoassay kits from MSA, Prognostix, and Mercodia, respectively. Presence of anti-therapeutic antibodies to orticumab.

[2] = in vivo, iv
Excerpt: Random allocation was stratified by T2DM status and pre-diabetes status, presence of elevated screening tissue-to-background ratio TBR>2), and study site.

[3] = test system: patients with atherosclerosis and evidence of carotid or aortic plaque inflammation; test: Phase IIa: arterial inflammation by FDG-PET/CT (index vessel MDS-TBR); format: in vivo, human; details: versus placebo; single (1245 mg IV) and multiple infusion groups
Protocol: The study enrolled 147 participants (83% male; mean age 63.0±9.0 years) with atherosclerosis and evidence of carotid or aortic plaque inflammation, measured by FDG-PET/computed tomography (CT). Because there is poor correlation between serum LDL levels and both serum and plaque oxLDL levels, patients were enrolled with a relatively wide range of serum LDL levels (fasting LDL>60 mg/dL at screening, which includes patients both above and below National Cholesterol Education Program Adult Treatment Panel III treatment goals). 139 patients completed the study.
The study consisted of a 28-day screening period, a 78-day treatment period, and a 90-day follow-up period. […] During the screening period, patient acceptability for the study was assessed on the basis of medical history, concomitant medications, physical examination, and clinical laboratory test results. Once a patient passed this initial screening phase, acceptability for study participation was confirmed on the basis of a TBR>1.8 in the qualifying vessel, as quantified by FDG-PET/CT. […]
The primary outcome variable was change in index vessel MDS-TBR (most diseased segment-target to background ratio) measured by FDG-PET/CT from baseline to week 12. Arterial FDG uptake was assessed as target to-background ratio (TBR). […]

oxidized LDL = oxidized LDL (Homo sapiens, UniProt P04114); details: cited from earlier work
oxidized LDL, sequence (P04114 28-4563): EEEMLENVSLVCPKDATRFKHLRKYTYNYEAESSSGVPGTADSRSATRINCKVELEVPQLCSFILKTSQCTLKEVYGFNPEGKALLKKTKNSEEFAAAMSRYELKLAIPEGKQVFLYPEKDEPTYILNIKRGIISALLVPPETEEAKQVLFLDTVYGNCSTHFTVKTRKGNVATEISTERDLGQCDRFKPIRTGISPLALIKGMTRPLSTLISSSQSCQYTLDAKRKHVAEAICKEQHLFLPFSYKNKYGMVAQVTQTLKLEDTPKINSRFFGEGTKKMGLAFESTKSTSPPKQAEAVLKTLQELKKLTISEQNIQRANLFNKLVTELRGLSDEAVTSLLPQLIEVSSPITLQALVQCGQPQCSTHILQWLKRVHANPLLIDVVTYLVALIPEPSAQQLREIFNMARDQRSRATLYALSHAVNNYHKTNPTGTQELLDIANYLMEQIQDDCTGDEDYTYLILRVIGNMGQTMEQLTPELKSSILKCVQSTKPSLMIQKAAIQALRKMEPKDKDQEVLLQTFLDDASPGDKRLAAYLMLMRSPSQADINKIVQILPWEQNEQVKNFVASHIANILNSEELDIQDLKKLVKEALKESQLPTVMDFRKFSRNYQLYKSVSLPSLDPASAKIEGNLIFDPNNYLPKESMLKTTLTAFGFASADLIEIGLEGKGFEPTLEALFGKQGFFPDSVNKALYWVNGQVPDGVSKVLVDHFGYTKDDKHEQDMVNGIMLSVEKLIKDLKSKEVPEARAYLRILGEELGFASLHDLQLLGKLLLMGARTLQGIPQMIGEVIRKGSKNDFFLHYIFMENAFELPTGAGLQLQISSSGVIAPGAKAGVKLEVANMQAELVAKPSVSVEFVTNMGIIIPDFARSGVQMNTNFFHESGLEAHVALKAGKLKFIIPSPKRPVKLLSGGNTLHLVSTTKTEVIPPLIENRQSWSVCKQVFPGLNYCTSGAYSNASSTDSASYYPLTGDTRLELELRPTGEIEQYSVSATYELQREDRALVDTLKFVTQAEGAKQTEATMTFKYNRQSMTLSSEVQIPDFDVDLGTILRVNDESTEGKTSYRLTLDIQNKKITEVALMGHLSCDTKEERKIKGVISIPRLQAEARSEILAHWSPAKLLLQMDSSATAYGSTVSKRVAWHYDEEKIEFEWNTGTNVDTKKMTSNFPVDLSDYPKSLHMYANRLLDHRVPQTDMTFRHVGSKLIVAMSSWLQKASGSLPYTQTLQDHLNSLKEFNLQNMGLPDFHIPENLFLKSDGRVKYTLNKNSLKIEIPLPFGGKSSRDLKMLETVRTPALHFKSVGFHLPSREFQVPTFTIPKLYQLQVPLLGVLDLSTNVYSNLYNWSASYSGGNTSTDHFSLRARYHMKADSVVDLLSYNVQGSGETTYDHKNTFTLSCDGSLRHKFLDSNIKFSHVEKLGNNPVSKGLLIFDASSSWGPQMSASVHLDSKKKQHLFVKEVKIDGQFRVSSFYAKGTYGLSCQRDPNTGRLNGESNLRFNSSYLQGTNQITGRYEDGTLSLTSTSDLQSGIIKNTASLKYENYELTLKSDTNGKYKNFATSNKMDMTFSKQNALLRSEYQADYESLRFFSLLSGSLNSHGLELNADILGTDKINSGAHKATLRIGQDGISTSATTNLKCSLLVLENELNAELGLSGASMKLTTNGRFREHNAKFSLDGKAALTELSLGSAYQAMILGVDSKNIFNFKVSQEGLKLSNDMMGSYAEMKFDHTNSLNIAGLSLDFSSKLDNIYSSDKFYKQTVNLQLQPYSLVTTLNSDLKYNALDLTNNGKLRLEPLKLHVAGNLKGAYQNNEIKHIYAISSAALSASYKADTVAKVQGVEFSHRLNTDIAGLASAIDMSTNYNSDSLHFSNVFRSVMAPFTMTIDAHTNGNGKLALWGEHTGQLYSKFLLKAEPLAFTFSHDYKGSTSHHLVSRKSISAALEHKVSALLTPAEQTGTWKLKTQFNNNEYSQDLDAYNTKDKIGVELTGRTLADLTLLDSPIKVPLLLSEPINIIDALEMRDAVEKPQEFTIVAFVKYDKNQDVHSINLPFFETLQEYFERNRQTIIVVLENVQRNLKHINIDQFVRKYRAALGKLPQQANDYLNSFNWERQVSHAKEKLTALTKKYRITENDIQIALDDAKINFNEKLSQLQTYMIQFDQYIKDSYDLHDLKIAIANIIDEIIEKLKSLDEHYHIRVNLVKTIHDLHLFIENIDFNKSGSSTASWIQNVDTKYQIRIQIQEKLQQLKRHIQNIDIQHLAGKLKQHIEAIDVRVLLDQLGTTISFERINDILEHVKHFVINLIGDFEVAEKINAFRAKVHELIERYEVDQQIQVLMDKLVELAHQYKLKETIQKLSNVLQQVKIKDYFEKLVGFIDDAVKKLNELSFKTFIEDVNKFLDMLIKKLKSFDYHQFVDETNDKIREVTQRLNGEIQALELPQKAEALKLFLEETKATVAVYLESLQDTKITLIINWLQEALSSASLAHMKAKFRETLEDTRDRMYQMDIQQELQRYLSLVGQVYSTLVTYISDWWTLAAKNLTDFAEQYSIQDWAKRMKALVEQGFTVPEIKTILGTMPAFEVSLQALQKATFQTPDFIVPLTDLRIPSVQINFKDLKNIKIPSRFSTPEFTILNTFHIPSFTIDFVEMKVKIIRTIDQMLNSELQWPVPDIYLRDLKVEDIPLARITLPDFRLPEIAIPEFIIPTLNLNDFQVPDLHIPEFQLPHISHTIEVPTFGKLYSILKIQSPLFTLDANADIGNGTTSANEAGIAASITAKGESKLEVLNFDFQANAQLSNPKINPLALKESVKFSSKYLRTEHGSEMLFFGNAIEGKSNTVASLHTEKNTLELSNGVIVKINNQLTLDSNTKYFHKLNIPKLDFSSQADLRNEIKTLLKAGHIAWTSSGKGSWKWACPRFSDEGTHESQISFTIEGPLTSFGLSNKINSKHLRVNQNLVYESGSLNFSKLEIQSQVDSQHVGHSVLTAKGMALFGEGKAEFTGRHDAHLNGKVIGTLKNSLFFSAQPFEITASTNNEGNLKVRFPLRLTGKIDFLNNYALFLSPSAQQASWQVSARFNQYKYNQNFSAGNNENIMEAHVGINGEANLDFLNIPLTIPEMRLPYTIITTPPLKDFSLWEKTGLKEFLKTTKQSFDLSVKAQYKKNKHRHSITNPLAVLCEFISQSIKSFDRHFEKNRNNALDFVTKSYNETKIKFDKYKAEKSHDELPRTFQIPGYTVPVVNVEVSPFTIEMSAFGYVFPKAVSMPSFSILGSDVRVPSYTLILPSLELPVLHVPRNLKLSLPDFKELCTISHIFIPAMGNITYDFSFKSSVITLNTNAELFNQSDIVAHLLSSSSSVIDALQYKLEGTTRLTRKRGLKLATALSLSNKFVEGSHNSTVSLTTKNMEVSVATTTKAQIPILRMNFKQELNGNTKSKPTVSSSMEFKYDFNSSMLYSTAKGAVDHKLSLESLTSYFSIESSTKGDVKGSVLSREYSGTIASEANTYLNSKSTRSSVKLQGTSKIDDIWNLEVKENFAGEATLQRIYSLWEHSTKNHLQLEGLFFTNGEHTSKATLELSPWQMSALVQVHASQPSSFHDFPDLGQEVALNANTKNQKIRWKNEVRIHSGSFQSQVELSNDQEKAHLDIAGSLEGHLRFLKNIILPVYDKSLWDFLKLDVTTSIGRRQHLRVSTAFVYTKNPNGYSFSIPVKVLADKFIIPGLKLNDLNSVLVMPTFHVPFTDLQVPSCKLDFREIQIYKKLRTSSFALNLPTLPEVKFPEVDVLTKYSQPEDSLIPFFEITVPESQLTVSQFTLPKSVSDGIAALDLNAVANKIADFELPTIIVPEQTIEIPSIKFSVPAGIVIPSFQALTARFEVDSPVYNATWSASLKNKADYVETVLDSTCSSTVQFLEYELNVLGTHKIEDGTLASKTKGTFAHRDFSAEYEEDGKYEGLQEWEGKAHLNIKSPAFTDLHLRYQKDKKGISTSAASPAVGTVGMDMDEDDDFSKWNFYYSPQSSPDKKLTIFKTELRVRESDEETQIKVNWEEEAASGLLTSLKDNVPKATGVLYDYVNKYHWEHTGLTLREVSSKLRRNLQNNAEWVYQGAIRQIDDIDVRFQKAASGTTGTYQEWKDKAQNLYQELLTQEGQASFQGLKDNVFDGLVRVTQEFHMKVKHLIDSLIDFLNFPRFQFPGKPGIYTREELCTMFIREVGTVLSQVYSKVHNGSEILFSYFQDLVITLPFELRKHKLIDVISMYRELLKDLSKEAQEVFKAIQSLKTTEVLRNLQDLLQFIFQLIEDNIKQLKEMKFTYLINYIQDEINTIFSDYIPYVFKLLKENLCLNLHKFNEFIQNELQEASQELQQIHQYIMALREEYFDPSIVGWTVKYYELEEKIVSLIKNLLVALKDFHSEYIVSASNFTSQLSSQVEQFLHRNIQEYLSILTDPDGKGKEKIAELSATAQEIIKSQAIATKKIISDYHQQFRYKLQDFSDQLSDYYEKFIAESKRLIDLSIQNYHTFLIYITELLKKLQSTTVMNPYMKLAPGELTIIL

B6.lpr.ApoE−/− mice [4] = test: Carotid artery mRNA expression; format: in vivo, mouse; details: 1 mg i.p. weekly x3; vs control IgG
Protocol: Statistics: Clinical comparisons from human individuals were evaluated and statistically tested using SPSS software. For same-individual analyses, paired nonparametric Wilxocon rank test was used. For normally distributed data, Students t-test was used. For not normally distributed data, Mann-Whitney rank test was used. Numerical data is expressed as mean±standard deviation if normally distributed or median±intra-quartile range if not normally distributed. Carotid gene expressions were log transformed and expressed as arbitrary units (A.U) and relative fold change respectively. All data was plotted in GraphPad Prism and significance levels used are *=p<0.05 **=p<0.01, ***=p<0.001.

[5] = Phase IIa: safety, tolerability, anti-therapeutic antibodies; set-up: species or system human; details: in vivo
Protocol: as §1

[6] = in vivo
[7] = test system: healthy subjects with elevated LDL cholesterol; test: Phase I dose-escalation trial: biomarkers and lipids; format: in vivo, human; details: healthy volunteers
Excerpt: (§2) Study population: 80 healthy subjects with elevated LDL cholesterol.
The panel included: oxLDL, Lp-PLA2, hsCRP, sCD36, MCP-1, ICAM-1, IL-10, VCAM-1, IL-1ra, TNFα, insulin, and MMP-3.

[8] = Phase I (FIH) dose-escalation trial, single and multiple doses: pharmacokinetics; set-up: species or system human; details: in vivo
Protocol: as §2
Orticumab was provided as a sterile liquid and contained no preservatives. Each single-use, 10 mL vial was designed to deliver 250 mg of MLDL1278A. The Drug Product was formulated as 25 mg/mL orticumab in 20 mM sodium acetate, 0.15 M sodium chloride, pH 5.5.
Route of Administration: intravenous injection (Subcutaneous injection was also examined).
The exact explanation for these unusual PK characteristics was unknown at that time. The mean terminal half-life was similar after both single and multiple administrations of orticumab and was generally in the range of 2-3 weeks and thus in agreement with other therapeutic monoclonal antibodies.

[9] = test system: monocyte chemoattractant protein 1, MCP-1; test: In vitro inhibition of oxLDL-mediated cytokine release (MCP-1); format: cell-based
Protocol: The ability of orticumab to shut down macrophage pro-inflammatory activity locally in the plaque became the focus, as it was thought to be an important mechanism underlying its therapeutic activity. Initial hypothesis of using orticumab related to neutralizing oxLDL from the systemic compartment, which required 4 μg/mL=˜28 nM=11 mg of orticumab to neutralize 90% systemic oxLDL. Further in vitro assays provided an insight into the minimum effective concentration of orticumab needed to achieve 50% or 90% inhibition of oxLDL-mediated cytokine release (i.e., inhibition of monocyte chemoattractant protein 1, MCP-1): […]

B6.lpr.ApoE−/− mice [10] = test: Atherosclerosis: en face Oil Red O of aortic arch, subvalvular plaque area, Oil Red O and CD68; format: in vivo, mouse; details: for reduction of subvalvular plaque area / development: three injections of the antibody
[11] = in vivo; remark: listed apart in the source
[12] = oxLDL-mediated cytokine release
[13] = male mice, 1 mg i.p. weekly for three weeks, vs control IgG

orticumab: recombinant human IgG1 against MDA-modified peptide 45 of ApoB100; heavy chain SEQ ID NO: 316, light chain SEQ ID NO: 317
interleukin 6 level ([1]; 4 weeks, multiple-dose group): nominal increase | tumor necrosis factor alpha level ([1]; 4 weeks, multiple-dose group): nominal increase | lipid parameters or high-sensitivity C-reactive protein level ([1]; either group): No significant decreases | Cmax D 1 [2]: 297 μ/mL | arterial inflammation (index vessel MDS-TBR), baseline to week 12 [3]: did not significantly reduce | binding specificity, oxidized vs native LDL (oxidized LDL): binds only to oxidized LDL and not to native LDL | mRNA expression of IL-10 or MCP-1 in carotid arteries (B6.lpr.ApoE−/− mice [4]): no effect | dose-limiting toxicities, deaths, pregnancies [5]: No dose-limiting toxicities, deaths, or pregnancies | immunogenicity [5]: no evidence of immunogenicity | serious adverse events related to procedures or administration [5]: No serious adverse events | tolerability [5]: well tolerated | SAEs during the study [6]: no SAEs | most frequently reported TEAEs ([6]; sc): mild intensity local site reactions | biomarkers (oxLDL, Lp-PLA2, hsCRP, sCD36, MCP-1, ICAM-1, IL-10, VCAM-1, IL-1ra, TNFα, insulin, MMP-3) [7]: No treatment-induced general effects | mean terminal half-life ([8]; human): 2-3 weeks | Cmax ([8]; human, iv, 1.25 mg/kg): 20600 ng/mL | Cmax ([8]; human, iv, 5 mg/kg): 105000 ng/mL | Cmax ([8]; human, sc, 1.25 mg/kg): 2990 ng/mL | Cmax, max exposure IV vs SC ([8]; 1.25 mg/kg): 6.9 times | ½-life ([8]; 1.25 mg/kg): 20 days | C ≥ 1 μg/mL ([8]; iv, 1.25 mg/kg): Day 28 | C ≥ 4 μg/mL ([8]; iv, 1.25 mg/kg): Day 3 (<Day 7) | C ≥ 12 μg/mL ([8]; iv, 1.25 mg/kg): 11 h | C ≥ 1 μg/mL ([8]; iv, 5 mg/kg): Day 56 | C ≥ 4 μg/mL ([8]; iv, 5 mg/kg): Day 14 | C ≥ 12 μg/mL ([8]; iv, 5 mg/kg): Day 3 | C ≥ 1 μg/mL ([8]; iv, 15 mg/kg): Day 70* | C ≥ 4 μg/mL ([8]; iv, 15 mg/kg): Day 42 | C ≥ 12 μg/mL ([8]; iv, 15 mg/kg): Day 28 | C ≥ 1 μg/mL ([8]; sc, 1.25 mg/kg): Day 28 | C ≥ 4 μg/mL ([8]; sc, 1.25 mg/kg): Not achieved | C ≥ 12 μg/mL ([8]; sc, 1.25 mg/kg): Not achieved | Cmax of SC dose versus threshold ([8]; sc, 1.25 mg/kg): does not reach threshold of 4-12 μg/mL | IC50 for MCP-1 inhibition ([9]; expressed as amount): ~4 mg | IC90 for MCP-1 inhibition ([9]; expressed as amount): 12.4 to 33 mg | IC50 for MCP-1 inhibition [9, 12]: 1.5 µg/mL | IC90 [9, 12]: 30 to 80 nM | IC90 for MCP-1 inhibition [9, 12]: 4.5 to 12 µg/mL | lipid accumulation in subvalvular plaques (B6.lpr.ApoE−/− mice [10]; [13]): trend towards decreased | reduction of CD68-macrophage subvalvular plaque staining (B6.lpr.ApoE−/− mice [10]; [13]): 30.5% | reduction of atherosclerosis in the aortic arch (B6.lpr.ApoE−/− mice [10]; [13]): 42.8% | reduction of subvalvular plaque area / development (B6.lpr.ApoE−/− mice [10]): 50% | reduction of subvalvular plaque area / development (B6.lpr.ApoE−/− mice [10]; listed as MDA-P45 specific antibody): 50.3% | subjects on active treatment reporting adverse events [11]: 44 of the 64 | treatment-emergent adverse events reported on active treatment [11]: 115 (76.2%)
